From article PMC11549370, “Two distinct regulatory pathways govern Cct2-Atg8 binding in the process of solid aggrephagy” (EMBO Reports, 2024)

How the values were obtained:
LC3C = LC3C (UniProt Q9BXW4); assay: anti-FLAG co-IP, anti-HA blot; details: reference: HA-CCT2 wild type; sites S458
Atg11 = Atg11 (UniProt Q12527); assay: anti-FLAG co-IP, anti-HA blot; details: reference: wild-type 3×HA-Cct2; sites S412,S470
[1] = target: T1, GST-Cct2 phosphorylated in vitro by Atg1 (S. cerevisiae, UniProt P39076 1-527, phosphorylated by Atg1; the paper maps the sites to S412 and S470); assay: pull-down; GST-Cct2 first incubated with Atg1-3×FLAG and ATP (30 °C, 30 min), enriched on GST beads, then His-Atg8 or Atg11 CC4 added in interaction buffer (1 mM EDTA, 1 mM EGTA, 150 mM NaCl, 1% Triton X-100 in 1×PBS), 2 h, 4 °C; Coomassie staining; details: both partners purified
T1 construct: Cct2, S. cerevisiae; also called phosphorylated GST-Cct2 WT; phosphorylated products; source: E. coli, purified, then incubated with WT Atg1-3×FLAG (from yeast) and ATP and enriched on GST beads; not shown: GST, N-terminal, kept

GST-Cct2 I487E = target: T2, GST-Cct2 I487E (S. cerevisiae, UniProt P39076 1-527, I487E); assay: pull-down; in vitro GST pulldown: GST-tagged protein on GST beads, prey added in binding buffer B (1 mM EDTA, 1 mM EGTA, 150 mM NaCl, 1% Triton X-100 in 1×PBS), 3 h, 4 °C; SDS-PAGE, Coomassie staining; details: both partners purified
T2 construct: Cct2, S. cerevisiae; also called pGEX-4T-1-Cct2 I487E; source: E. coli, purified; not shown: GST, N-terminal, kept

GST-Cct2 = target: T3, GST-Cct2 (S. cerevisiae, UniProt P39076 1-527); assay: as above; details: both partners purified
T3 construct: Cct2, subunit of the TRiC complex, S. cerevisiae; the CCT2 gene cloned into pGEX-4T-1; also called WT GST-Cct2; pGEX-4T-1-Cct2; source: E. coli, purified; not shown: GST, N-terminal, kept

[2] = target: T4, GST-Cct2 S412A-S470A (2A) (S. cerevisiae, UniProt P39076 1-527, S412A | S470A); assay: as above; details: both partners purified
T4 construct: Cct2, S. cerevisiae; also called Cct2-2A mutant protein; pGEX-4T-1-Cct2 S412A-S470A(2A); source: E. coli, purified; not shown: GST, N-terminal, kept

GST-Cct2 D473A = target: T5, GST-Cct2 D473A (S. cerevisiae, UniProt P39076 1-527, D473A); assay: as above; details: both partners purified
T5 construct: Cct2, S. cerevisiae; also called pGEX-4T-1-Cct2 D473A; source: E. coli, purified; not shown: GST, N-terminal, kept
T5 sequence (P39076 whole entry D473A): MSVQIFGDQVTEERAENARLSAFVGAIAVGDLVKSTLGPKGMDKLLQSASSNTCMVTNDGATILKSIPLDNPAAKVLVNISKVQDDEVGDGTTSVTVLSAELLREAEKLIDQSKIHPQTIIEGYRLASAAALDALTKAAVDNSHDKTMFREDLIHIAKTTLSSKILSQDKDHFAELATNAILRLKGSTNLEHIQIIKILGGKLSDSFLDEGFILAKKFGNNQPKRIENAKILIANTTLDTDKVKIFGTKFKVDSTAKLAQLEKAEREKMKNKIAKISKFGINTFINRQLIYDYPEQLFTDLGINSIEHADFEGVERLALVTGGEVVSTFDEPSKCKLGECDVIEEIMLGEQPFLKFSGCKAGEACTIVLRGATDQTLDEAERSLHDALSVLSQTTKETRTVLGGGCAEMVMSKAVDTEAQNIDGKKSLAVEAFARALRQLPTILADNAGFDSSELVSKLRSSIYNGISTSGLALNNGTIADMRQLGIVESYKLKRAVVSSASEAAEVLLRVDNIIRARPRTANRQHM

T2 sequence (P39076 whole entry I487E): as the sequence (P39076 whole entry D473A) above, with A473D, I487E counted along it
T3 sequence (P39076 whole entry): as the sequence (P39076 whole entry D473A) above, with A473D counted along it
T1 sequence (P39076 whole entry): as the sequence (P39076 whole entry D473A) above, with A473D counted along it
T4 sequence (P39076 whole entry S412A/S470A): as the sequence (P39076 whole entry D473A) above, with S412A, S470A, A473D counted along it

CCT2 (hCCT2) (from UniProt P78371) HA-CCT2 S458A
binding against the reference (LC3C): weaker

Cct2 (from UniProt P39076) 3×HA-Cct2 S412A-S470A
binding against the reference (Atg11): weaker

B1: His-Atg8 (natural protein, S. cerevisiae, UniProt P38182 1-117, looked up)
chain: MKSTFKSEYPFEKRKAESERIADRFKNRIPVICEKAEKSDIPEIDKRKYLVPADLTVGQFVYVIRKRIMLPPEKAIFIFVNDTLPPTAALMSAIYQEHKDKDGFLYVTYSGENTFGR
notes: Atg8, S. cerevisiae; source: E. coli, purified; not shown: His, N-terminal, kept
binding result [1]: binds | binding result (GST-Cct2 I487E): binds | binding result (GST-Cct2): binds | binding result [2]: binds | binding result (GST-Cct2 D473A): binds
